According to paper PMC5120205 (Nature Communications, 2016):
Where a chain is given by its changes, count along the chain named. In names and notes the source's numbering stands.

Assays:
Conditions in all cases: both partners purified
[1] = target: T1, recombinant full-length IsdB (Staphylococcus aureus USA300, UniProt Q2FHV2); test: SPR
T1 construct: not shown: FLAG, C-terminal, kept

[2] = target: T2, recombinant IsdB NEAT1 domain (Staphylococcus aureus USA300, UniProt Q2FHV2); test: ELISA
T2 construct: not shown: FLAG, C-terminal, kept

[3] = target: T3, recombinant full-length IsdB (Staphylococcus aureus USA300, UniProt Q2FHV2); test: SPR; remark: listed apart in the source
T3 construct: not shown: FLAG, C-terminal, kept

[4] = target: T1, recombinant full-length IsdB; test: BLI; Octet; antibody captured on anti-species sensors (15 ug/ml), 32 nM rIsdB bound, then 1 uM Hb or buffer
[5] = target: T4, recombinant IsdB NEAT2 domain (Staphylococcus aureus USA300, UniProt Q2FHV2); test: ELISA
T4 construct: not shown: FLAG, C-terminal, kept

[6] = target: T3, recombinant full-length IsdB; test: ELISA
IsdB NEAT2 domain = IsdB NEAT2 domain (Staphylococcus aureus USA300, UniProt Q2FHV2); test: SPR
[7] = target: T5, recombinant full-length IsdB (Staphylococcus aureus USA300, UniProt Q2FHV2); test: ELISA; remark: listed apart in the source
T5 construct: not shown: FLAG, C-terminal, kept

B1: D4-10-N1 (antibody, V domains shown)
VH: QVQLQESGPGLVKPSETLSLICTVSGGSISSSSYYWGWIRQTPERNLEWIGIIYFSGTTYYNPSLQSRVSMSLDRSTNRFSLRLSSVTAADTAIYYCAKPKSRDRGGPGDDYFGMDVWGQGIMVTVSS
VL: DIQLTQSPSFLSASVADRVTITCRASQAVRSSLAWYQQKPGKAPQLLIYSASTLENGVSSRFSGSGPGTEFTLTISSLQPEDVGTYYCQQLNTYPFTFGPGTKVEIK
Kd [1]: < 1 pM | binding result [2]: binds

B2: D4-10-N1 germline-reverted (IGHV4-39) (antibody, V domains shown)
VH: QLQLQESGPGLVKPSETLSLTCTVSGGSISSSSYYWGWIRQPPGKGLEWIGSIYYSGSTYYNPSLKSRVTISVDTSKNQFSLKLSSVTAADTAVYYCAKPKSRDRGGPGDDYFGMDVWGQGIMVTVSS
VL: B1 VL
binding result [3]: binds

B3: germlined D4-10 (NEAT1) (antibody, V domains shown)
VH: B2 VH
VL: B1 VL
binding result [4]: binds

B4: D4-10-N1 antibody (human IgG) (antibody, V domains shown)
VH: B1 VH
VL: B1 VL
binding result [3]: binds

B5: D4-30-N2 (antibody, V domains shown)
VH: QVQLVQSGSEVKKPGSSVTLSCKASGDTFNTHTYSWVRQAPGQRLEWIGGIMPIFAASKSAPHLQDRLTITANKATRTAYMELTSLTSDDSGVYYCARDGRGALQYWGQGTLVTVSS
VL: DIVMTQSPLSLPVTLGQPASISCSSAQSLVHSDGDSYLTWFHQRPGQSPRRLIYKVSIRDAGVPDRFSGSGSGTDFTLKISRVEAEDVGVYYCMQATHWPYTFGQGTKLEIK
binding result [5]: binds

B6: D4-30-N2 antibody (human IgG) (antibody, V domains shown)
VH: B5 VH
VL: B5 VL
binding result [6]: binds | binding result (IsdB NEAT2 domain): binds

B7: D2-06-N2 (IGHV1-69*01 germline-reverted) (antibody, V domains shown)
VH: QVQLVQSGAEVKKPGSSVKVSCKASGGTFSSYAISWVRQAPGQGLEWMGGIIPIFGTANYAQKFQGRVTITADESTSTAYMELSSLRSEDTAVYYCARDRPPGAQFDTWGQGTLVTVSS
VL: not shown
other (IsdB NEAT2 domain): > 600 fold

B8: D2-06-N2 (IGHV1-69*01 germline-reverted) variant G50R (antibody, V domains shown)
VH: B7 VH with G50R
VL: not shown
binding result [7]: no binding

B9: D2-06-N2 (IGHV1-69*01 germline-reverted) variant F54L (antibody, V domains shown)
VH: B7 VH with F55L
VL: not shown
binding result [6]: binds

B10: D2-06-N2 (IGHV1-69*01 germline-reverted) variant T56I (antibody, V domains shown)
VH: B7 VH with T57I
VL: not shown
binding result [6]: binds
